From US20230303680A1 (UNIVERSIT T Z RICH, published 2023)

Key:
[1] = biological target: T1, human interleukin-2 (recombinant human IL-2, teceleukin) (human, UniProt P60568 21-153); experiment: single-cycle surface plasmon resonance (SPR)
T1 construct: also called hIL-2; rhIL-2

[2] = biological target: T1, human interleukin-2 (recombinant human …); experiment: SPR, mAb immobilized, IL-2 injected
Procedure: (§1) Chip surface was regenerated after every cycle using glycine buffer pH 1.5. Measurements were acquired at 20° C. and analysed on a Biacore T100 (GE Healthcare).

[3] = biological target: T1, human interleukin-2 (recombinant human …); experiment: SPR
[4] = biological target: T1, human interleukin-2 (recombinant human …); experiment: SPR; remark: listed apart in the source
Procedure: as §1

T1 sequence (P60568 21-153 limits assumed): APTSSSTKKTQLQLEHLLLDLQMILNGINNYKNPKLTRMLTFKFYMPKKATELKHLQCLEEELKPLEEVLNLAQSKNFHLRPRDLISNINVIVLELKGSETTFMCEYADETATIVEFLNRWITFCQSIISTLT

| Binder | Kd [3] [nM] | koff [3] [s⁻¹] | kon [3] [M⁻¹ s⁻¹] | also measured |
| --- | --- | --- | --- | --- |
| 4 + 9 (antibody, V domains shown, UFKA-20 variant; also called UFKA-20 variant 4+9; vH chain 4, vL chain 9; copies: 2 + 2) VH: EVMLVESGGGLVKPGGSLKLSCAASGFSFSNYAMSWVRQTPERRLEWVALISGGGRYSYYPDSLKGRFTISRDSARNSLYLQMSSLRSEDTAMYYCARHMGHNDYLAWFAYWGQGTLVTVSS VL: DIVMTQSPSSLAVSVGQKVTMSCKSSQSLLNSANQRNYLAWYQQKPGQSPKLLIYWASTRESGVPDRFIGSGSGTDFTLNISSVQAEDLADYFCQQYYSAPPWTFGGGTKLEIKR | – | – | – | Kd [1]: 1.02 nM |
| 103 + 9 (antibody, V domains shown, UFKA-20 variant; copies: 2 + 2) VH: EVMLVESGGGLVKPGGSLKLSCAASGFSFSNYAMSWVRQTPERRLEWVALISGGGSYSYYPDSLKGRFTISRDSARNSLYLQMSSLRSEDTAMYYCARHMGYADYLAWFAYWGQGTLVTVSS VL: DIVMTQSPSSLAVSVGQKVTMSCKSSQSLLNSANQRNYLAWYQQKPGQSPKLLIYWASTRESGVPDRFIGSGSGTDFTLNISSVQAEDLADYFCQQYYSAPPWTFGGGTKLEIKR | – | – | – | Kd [1]: 2.7 nM |
| 105 + 9 (antibody, V domains shown, UFKA-20 variant; also called UFKA-20 variant 105+9; vH chain 105, vL chain 9; copies: 2 + 2) VH: EVMLVESGGGLVKPGGSLKLSCAASGFSFSNYAMSWVRQTPERRLEWVALISGGGSYSYYPDSLKGRFTISRDSARNSLYLQMSSLRSEDTAMYYCARHMGYNDALAWFAYWGQGTLVTVSS VL: DIVMTQSPSSLAVSVGQKVTMSCKSSQSLLNSANQRNYLAWYQQKPGQSPKLLIYWASTRESGVPDRFIGSGSGTDFTLNISSVQAEDLADYFCQQYYSAPPWTFGGGTKLEIKR | – | – | – | Kd [1]: 0.271 nM |
| 103 + 6 (antibody, V domains shown, UFKA-20 variant; copies: 2 + 2) VH: EVMLVESGGGLVKPGGSLKLSCAASGFSFSNYAMSWVRQTPERRLEWVALISGGGSYSYYPDSLKGRFTISRDSARNSLYLQMSSLRSEDTAMYYCARHMGYADYLAWFAYWGQGTLVTVSS VL: not shown | – | – | – | Kd [1]: 2.09 nM |
| 4 + 10 (antibody, V domains shown, UFKA-20 variant; also called UFKA-20 variant 4+10; vH chain 4, vL chain 10; copies: 2 + 2) VH: EVMLVESGGGLVKPGGSLKLSCAASGFSFSNYAMSWVRQTPERRLEWVALISGGGRYSYYPDSLKGRFTISRDSARNSLYLQMSSLRSEDTAMYYCARHMGHNDYLAWFAYWGQGTLVTVSS VL: DIVMTQSPSSLAVSVGQKVTMSCKSSQSLLNVSNQRNYLAWYQQKPGQSPKLLIYFASTRESGVPDRFIGSGSGTDFTLNISSVQAEDLADYFCQQYYSCPPWTFGGGTKLEIKR | – | – | – | Kd [1]: 33.6 nM |
| 105 + 6 (antibody, V domains shown, UFKA-20 variant; also called UFKA-20 variant 105+6; vH chain 105, vL chain 6; copies: 2 + 2) VH: EVMLVESGGGLVKPGGSLKLSCAASGFSFSNYAMSWVRQTPERRLEWVALISGGGSYSYYPDSLKGRFTISRDSARNSLYLQMSSLRSEDTAMYYCARHMGYNDALAWFAYWGQGTLVTVSS VL: not shown | – | – | – | Kd [1]: 0.429 nM |
| NARA1 (anti-human IL-2 mAb, CD122-biasing) (antibody, V domains shown) VH: QVQLQQSGAELVRPGTSVKVSCKASGYAFTNYLIEWVKQRPGQGLEWIGVINPGSGGTNYNEKFKGKATLTADKSSSTAYMQLSSLTSDDSAVYFCARWRGDGYYAYFDVWGAGTTVTVSS VL: not shown | – | – | – | Kd [2]: 4.2 nM; koff [2]: 0.000117 s⁻¹; kon [2]: 30000 M⁻¹ s⁻¹ |
| UFKA-22-10 (antibody, human IgG1, V domains shown) VH: EVQLVESGGGLVKPGGSLRLSCAASGFSFSNYAMSWVRQAPGKGLEWVSLISGGGSYSYYPDSLKGRFTISRDSAKNSLYLQMSSLRAEDTAVYYCARHMGYNDYLAWFAYWGQGTLVTVSS VL: DIVMTQSPDSLAVSLGERATINCKSSQSLLNSANQKNYLAWYQQKPGQPPKLLIYFASTRESGVPDRFIGSGSGTDFTLTISSLQAEDVAVYYCQQYYSAPPWTFGGGTKVEIK | 5.16 | 0.00283 | 548000 | – |
| UFKA-22-00 (humanized UFKA-20) (antibody, human IgG1, kappa, N297A, V domains shown, Human IgG1 with N297A) VH: EVQLVESGGGLVKPGGSLRLSCAASGFSFSNYAMSWVRQAPGKGLEWVSLISGGGSYSYYPDSLKGRFTISRDNAKNSLYLQMNSLRAEDTAVYYCARHMGYNDYLAWFAYWGQGTLVTVSS VL: not shown | 5.13 | 0.00239 | 466000 | Kd [4]: 5.13 nM; koff [4]: 0.00239 s⁻¹; kon [4]: 466000 M⁻¹ s⁻¹ |
| UFKA-22-04 (antibody, human IgG1, V domains shown) VH: EVQLVESGGGLVKPGGSLRLSCAASGFSFSNYAMSWVRQAPGKGLEWVSLISGGGSYSYYPDSLKGRFTISRDSAKNSLYLQMNSLRAEDTAMYYCARHMGYNDYLAWFAYWGQGTLVTVSS VL: not shown | 5.03 | 0.00241 | 479000 | – |
| UFKA-22-03 (antibody, human IgG1, V domains shown) VH: EVQLVESGGGLVKPGGSLRLSCAASGFSFSNYAMSWVRQAPGKGLEWVSLISGGGSYSYYPDSLKGRFTISRDSAKNSLYLQMSSLRAEDTAVYYCARHMGYNDYLAWFAYWGQGTLVTVSS VL: not shown | 4.73 | 0.00279 | 590000 | – |
| UFKA-22-01 (antibody, human IgG1, V domains shown) VH: EVQLVESGGGLVKPGGSLRLSCAASGFSFSNYAMSWVRQAPGKGLEWVSLISGGGSYSYYPDSLKGRFTISRDSAKNSLYLQMNSLRAEDTAVYYCARHMGYNDYLAWFAYWGQGTLVTVSS VL: not shown | 5.31 | 0.00252 | 475000 | – |
| UFKA-22-02 (antibody, human IgG1, V domains shown) VH: EVQLVESGGGLVKPGGSLRLSCAASGFSFSNYAMSWVRQAPGKGLEWVSLISGGGSYSYYPDSLKGRFTISRDNAKNSLYLQMSSLRAEDTAVYYCARHMGYNDYLAWFAYWGQGTLVTVSS VL: not shown | 5.51 | 0.00227 | 412000 | Kd [4]: 5.51 nM; koff [4]: 0.00227 s⁻¹; kon [4]: 412000 M⁻¹ s⁻¹ |

The next lines start with results.

| Kd [3] [nM] | koff [3] [s⁻¹] | kon [3] [M⁻¹ s⁻¹] | Binder | also measured |
| --- | --- | --- | --- | --- |
| 5.17 | 0.00251 | 486000 | UFKA-22-07 (antibody, human IgG1, V domains shown) VH: EVQLVESGGGLVKPGGSLRLSCAASGFSFSNYAMSWVRQAPGKGLEWVSLISGGGSYSYYPDSLKGRFTISRDNAKNSLYLQMNSLRAEDTAVYYCARHMGYNDYLAWFAYWGQGTLVTVSS VL: DIVMTQSPDSLAVSLGERATINCKSSQSLLNSANQKNYLAWYQQKPGQPPKLLIYFASTRESGVPDRFIGSGSGTDFTLTISSLQAEDVAVYYCQQYYSAPPWTFGGGTKVEIK | Kd [4]: 5.17 nM; koff [4]: 0.00251 s⁻¹; kon [4]: 486000 M⁻¹ s⁻¹ |
| 5.31 | 0.00275 | 517000 | UFKA-22-11 (antibody, human IgG1, V domains shown) VH: EVQLVESGGGLVKPGGSLRLSCAASGFSFSNYAMSWVRQAPGKGLEWVSLISGGGSYSYYPDSLKGRFTISRDSAKNSLYLQMNSLRAEDTAMYYCARHMGYNDYLAWFAYWGQGTLVTVSS VL: DIVMTQSPDSLAVSLGERATINCKSSQSLLNSANQKNYLAWYQQKPGQPPKLLIYFASTRESGVPDRFIGSGSGTDFTLTISSLQAEDVAVYYCQQYYSAPPWTFGGGTKVEIK | – |
| 5.27 | 0.00246 | 466000 | UFKA-22-09 (antibody, human IgG1, V domains shown) VH: EVQLVESGGGLVKPGGSLRLSCAASGFSFSNYAMSWVRQAPGKGLEWVSLISGGGSYSYYPDSLKGRFTISRDNAKNSLYLQMSSLRAEDTAVYYCARHMGYNDYLAWFAYWGQGTLVTVSS VL: DIVMTQSPDSLAVSLGERATINCKSSQSLLNSANQKNYLAWYQQKPGQPPKLLIYFASTRESGVPDRFIGSGSGTDFTLTISSLQAEDVAVYYCQQYYSAPPWTFGGGTKVEIK | – |
| 4.86 | 0.0022 | 452000 | UFKA-22-05 (antibody, human IgG1, V domains shown) VH: EVQLVESGGGLVKPGGSLRLSCAASGFSFSNYAMSWVRQAPGKGLEWVSLISGGGSYSYYPDSLKGRFTISRDNAKNSLYLQMSSLRAEDTAMYYCARHMGYNDYLAWFAYWGQGTLVTVSS VL: not shown | – |
| 4.45 | 0.00252 | 567000 | UFKA-22-06 (antibody, human IgG1, V domains shown) VH: EVQLVESGGGLVKPGGSLRLSCAASGFSFSNYAMSWVRQAPGKGLEWVSLISGGGSYSYYPDSLKGRFTISRDSAKNSLYLQMSSLRAEDTAMYYCARHMGYNDYLAWFAYWGQGTLVTVSS VL: not shown | – |
| 5.33 | 0.00275 | 515000 | UFKA-22-08 (antibody, human IgG1, V domains shown) VH: EVQLVESGGGLVKPGGSLRLSCAASGFSFSNYAMSWVRQAPGKGLEWVSLISGGGSYSYYPDSLKGRFTISRDSAKNSLYLQMNSLRAEDTAVYYCARHMGYNDYLAWFAYWGQGTLVTVSS VL: DIVMTQSPDSLAVSLGERATINCKSSQSLLNSANQKNYLAWYQQKPGQPPKLLIYFASTRESGVPDRFIGSGSGTDFTLTISSLQAEDVAVYYCQQYYSAPPWTFGGGTKVEIK | – |
| 4.56 | 0.00277 | 607000 | UFKA-22-13 (antibody, human IgG1, V domains shown) VH: EVQLVESGGGLVKPGGSLRLSCAASGFSFSNYAMSWVRQAPGKGLEWVSLISGGGSYSYYPDSLKGRFTISRDSAKNSLYLQMSSLRAEDTAMYYCARHMGYNDYLAWFAYWGQGTLVTVSS VL: DIVMTQSPDSLAVSLGERATINCKSSQSLLNSANQKNYLAWYQQKPGQPPKLLIYFASTRESGVPDRFIGSGSGTDFTLTISSLQAEDVAVYYCQQYYSAPPWTFGGGTKVEIK | – |
| 4.3 | 0.0024 | 560000 | UFKA-22-14 (antibody, human IgG1, V domains shown) VH: EVQLVESGGGLVKPGGSLRLSCAASGFSFSNYAMSWVRQAPGKGLEWVSLISGGGSYSYYPDSLKGRFTISRDNAKNSLYLQMNSLRAEDTAVYYCARHMGYNDYLAWFAYWGQGTLVTVSA VL: DIVMTQSPDSLAVSLGERATINCKSSQSLLNSANQKNYLAWYQQKPGQPPKLLIYFASTRESGVPDRFIGSGSGTDFTLTISSLQAEDVAVYYCQQYYSAPPWTFGGGTKVEIK | – |
| 5.05 | 0.0024 | 474000 | UFKA-22-12 (antibody, human IgG1, V domains shown) VH: EVQLVESGGGLVKPGGSLRLSCAASGFSFSNYAMSWVRQAPGKGLEWVSLISGGGSYSYYPDSLKGRFTISRDNAKNSLYLQMSSLRAEDTAMYYCARHMGYNDYLAWFAYWGQGTLVTVSS VL: DIVMTQSPDSLAVSLGERATINCKSSQSLLNSANQKNYLAWYQQKPGQPPKLLIYFASTRESGVPDRFIGSGSGTDFTLTISSLQAEDVAVYYCQQYYSAPPWTFGGGTKVEIK | – |
